Experiments:
[1] = test system: human lung cancer A549 cells; assay: Orthotopic transplantation tumor model of human lung cancer A549 cells; conditions: after administration for 28 days;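 also: test animals were NOG mice aged 6-8 weeks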
Procedure: The human lung cancer A549 cell strain is selected. The NOG Mice of 6-8 weeks old are selected.
The DMEM containing 10% fetal bovine serum is selected for the human lung cancer A549 cells, and then is placed in the CO2 constant-temperature incubator at 37° C. for culturing. The A549 cells at the logarithmic phase are digested by pancreatin and thereafter washed with serum-free DMEM; the living cell concentration is adjusted to 1×10^8 cells per milliliter; 20 μL cell suspension is taken and inoculated at the lung of the NOG mice; two weeks later, the orthotopic transplantation tumor model of A549 lung cancer cells is constructed in the NOG mice.

[2] = test system: human colon cancer SW480 cells; assay: Transplantation tumor model of human colon cancer SW480 cells; assay type: in vivo, BALB/c nude mice; conditions: after administration for 28 days
Procedure: The RPMI1640 medium containing 10% fetal bovine serum is selected for the human colon cancer SW480 cells, and then is placed in the CO2 constant-temperature incubator at 37° C. for culturing. The SW480 cells at the logarithmic phase are digested by pancreatin and thereafter washed with serum-free RPMI1640 medium; 2×10^6 cells are inoculated below the back skin of the BALB/c nude mice; after the tumor blocks for observation are formed and have the diameter larger than 0.5 cm, the mice are divided into groups randomly; and the transplantation tumor model of human colon cancer SW480 cells are constructed in the BALB/c nude mice.

[3] = test system: human liver cancer Hep G2 cells; conditions: for Mice weight after experiment: mouse, in vivo; for Mice tumor weight after experiment / Survival rate of mice after experiment: qd×28 i.v., rLZ-8 and mutants 0.5 mg/kg, sorafenib 50 mg/kg; for Survival rate of mice after experiment: 10 mice per group
Description: Two weeks later, the model mice are divided into groups randomly, and each group has 10 mice. The administration method is caudal vein injection, once a day, for consecutive 28 days (qd×28, i.v.). […] During the experiment, if the mouse dies, the dead mouse is weighted on the same day, and the tumor tissue is taken out to be weighted. For the living mouse after administration for 28 days, the mouse is killed, and then the tumor tissue is taken out to be weighted. The death time and death number of the mice in each group are recorded in detail; the survival conditions of the mice of the experimental groups and the control groups are analyzed, and the survival rate is calculated, wherein the survival rate is obtained through subtracting the death number of the mice from the total number of the mice, and then dividing the difference by the total number of the mice.

[4] = test system: liver cancer, lung cancer, breast cancer and colon cancer; assay: Animal pharmacodynamic experiments of liver, lung, breast and colon cancer (summary statement); assay type: in vivo, mice; conditions: breast and colon cancer models together
[5] = molecular target: EGFR extracellular domain (Homo sapiens, UniProt P00533); assay: Affinity test by surface plasmon resonance (Biacore T200, CM5 chip); assay type: binding; conditions: for Dissociation rate constant (koff) / Ka: EGFR extracellular domain coupled on CM5 chip, analyte 4-256 nM; for Affinity with the EGFR (in words): compared with rLZ-8
Procedure: The Biacore™ T200 equipment (a Surface Plasmon Resonance from GE Company) is selected. Through the surface plasma resonance technology, the affinity of the rLZ-8 and the mutants thereof to the EGFR extracellular domain is tested. The CM5 chip is adopted to serve as the affinity test chip.
The EGFR extracellular domain (with an amino acid sequence of 25-645) serves as the ligand for coupling; 1 mg EGFR freeze-dried powders are diluted with HEPES buffer solution to a concentration of 400 μg/mL and set aside. Three 1.5 mL EP tubes are prepared; 10 μL ligand are respectively added into the three tubes, then 90 μL 10 mM sodium acetate with different pH values of 4.5, 5.0 and 5.5 are respectively added into the tubes and are mixed completely and uniformly; and a final concentration of the ligand is 40 μg/mL. Moreover, 200 μL 50 mM sodium acetate is added into another 1.5 mL EP tube.
The ligand has a molecular weight of 70 kDa, the analyte (rLZ-8) has a molecular weight of 12.4 kDa. In theory, one rLZ-8 […] can bind with one EGFR, and thus the stoichiometric ratio Sm is equal to 1. Through the following equations, the coupling amount RL of the ligand is calculated.
Through the experimental experience, the optimal reagent coupling amount is set to be 3*RL, and the coupling amount is set to be 1700 RU. The EGFR extracellular domain is successively coupled on the CM5 chip.
In the affinity test, in order to eliminate the influence of different concentrations on the affinity, every of the rLZ-8 and the mutants thereof are tested with eight concentrations, wherein: seven concentrations are gradient concentrations, and the last one is the test reference concentration.

[6] = test system: human breast cancer MCF7 cells; assay: Orthotopic transplantation tumor model of human breast cancer MCF7 cells; assay type: in vivo, BALB/c nude mice; conditions: after administration for 28 days
Procedure: One day before the experiment, 0.5 mg of 17ß estradiol sustained release tablet is embedded below the neck skin of the BALB/c nude mice.

Molecule	Mice survival rate after experiment [1] [%]	Mice tumor weight after experiment [1] [g]	Mice weight after experiment [1] [g]	Tumor inhibitory effect (in words) [1]	Mice tumor weight after experiment [2] [g]	Tumor inhibitory effect (in words) [2]	Tumor inhibitory effect (in words) ([3]; after administration for 28 days)	Mice weight after experiment [3] [g]	Mice tumor weight after experiment [3] [g]	Survival rate of mice after experiment [3] [%]	Tumor inhibitory effect (in words) [4]	Dissociation rate constant (koff) [5] [s⁻¹]	Ka [5] [M⁻¹ s⁻¹]	Affinity with the EGFR (in words) [5]	Affinity with the EGFR (in words) ([5]; listed as rLZ-8 (K16A/K41 A))	Mice tumor weight after experiment [6] [g]	Tumor inhibitory effect (in words) [6]
rLZ-8 (K16A/K41A): alanine mutant of rLZ-8 at K16 and K41 (protein) MSDTALIFRLAWDVKALSFDYTPNWGRGNPNNFIDTVTFPAVLTDKAYTYRVAVSGRNLGVKPSYAVESDGSQKVNFLEYNSGYGIADTNTIQVFVVDPDTNNDFIIAQWN	20	1.26 ± 0.77	17.4 ± 1.5	nearly no tumor inhibitory effect	3.12 ± 0.47	nearly no tumor inhibitory effect	nearly no tumor inhibitory effect	17.2 ± 1.3	1.46 ± 0.93	20	nearly no tumor inhibitory effect	0.000273	220	obviously decreased by 2-3 orders of magnitudes	obviously decreased affinity	1.12 ± 0.37	nearly no tumor inhibitory effect
rLZ-8 (D20H): rLZ-8 mutant after surface potential optimization, D20H (protein) MSDTALIFRLAWDVKKLSFHYTPNWGRGNPNNFIDTVTFPKVLTDKAYTYRVAVSGRNLGVKPSYAVESDGSQKVNFLEYNSGYGIADTNTIQVFVVDPDTNNDFIIAQWN	70	0.51 ± 0.32	19.9 ± 1.7	–	1.54 ± 0.45	–	–	19.7 ± 1.7	0.60 ± 0.31	60	–	0.000432	58700	–	–	0.61 ± 0.22	–
rLZ-8 (K41D/K46E/K74E): rLZ-8 mutant K41D, K46E and K74E (protein) MSDTALIFRLAWDVKKLSFDYTPNWGRGNPNNFIDTVTFPDVLTDEAYTYRVAVSGRNLGVKPSYAVESDGSQEVNFLEYNSGYGIADTNTIQVFVVDPDTNNDFIIAQWN	40	1.20 ± 0.62	19.1 ± 1.3	–	3.10 ± 0.48	–	–	20.0 ± 1.2	1.25 ± 0.53	40	–	–	35300	decreased	–	1.10 ± 0.42	–
rLZ-8 (K46E/K74E): rLZ-8 mutant K46E and K74E (protein) MSDTALIFRLAWDVKKLSFDYTPNWGRGNPNNFIDTVTFPKVLTDEAYTYRVAVSGRNLGVKPSYAVESDGSQEVNFLEYNSGYGIADTNTIQVFVVDPDTNNDFIIAQWN	50	0.63 ± 0.41	20.0 ± 1.5	–	2.23 ± 0.54	–	–	20.1 ± 1.7	0.69 ± 0.42	60	–	0.000614	65700	–	–	0.73 ± 0.24	–
rLZ-8 (L17K): rLZ-8 mutant after surface potential optimization, L17K (protein) MSDTALIFRLAWDVKKKSFDYTPNWGRGNPNNFIDTVTFPKVLTDKAYTYRVAVSGRNLGVKPSYAVESDGSQKVNFLEYNSGYGIADTNTIQVFVVDPDTNNDFIIAQWN	70	0.53 ± 0.30	–	–	1.62 ± 0.41	–	–	20.1 ± 1.4	0.58 ± 0.33	70	–	7.56e-05	10100	–	–	0.63 ± 0.31	–
rLZ-8 (R9A): alanine mutant of rLZ-8 at R9 (protein) MSDTALIFALAWDVKKLSFDYTPNWGRGNPNNFIDTVTFPKVLTDKAYTYRVAVSGRNLGVKPSYAVESDGSQKVNFLEYNSGYGIADTNTIQVFVVDPDTNNDFIIAQWN	50	0.69 ± 0.53	20.0 ± 1.4	–	1.89 ± 0.37	–	–	19.3 ± 1.3	0.65 ± 0.43	50	–	0.000528	61200	no obvious change	–	0.79 ± 0.31	–
rLZ-8 (K46E): rLZ-8 mutant K46E (protein) MSDTALIFRLAWDVKKLSFDYTPNWGRGNPNNFIDTVTFPKVLTDEAYTYRVAVSGRNLGVKPSYAVESDGSQKVNFLEYNSGYGIADTNTIQVFVVDPDTNNDFIIAQWN	40	0.65 ± 0.31	20.4 ± 1.6	–	2.15 ± 0.62	–	–	19.4 ± 1.8	0.75 ± 0.44	60	–	–	–	–	–	0.75 ± 0.32	–
rLZ-8 (D20H/D70K): rLZ-8 mutant after surface potential optimization, D20H and D70K (protein) MSDTALIFRLAWDVKKLSFHYTPNWGRGNPNNFIDTVTFPKVLTDKAYTYRVAVSGRNLGVKPSYAVESKGSQKVNFLEYNSGYGIADTNTIQVFVVDPDTNNDFIIAQWN	70	0.49 ± 0.28	20.6 ± 1.7	–	1.60 ± 0.29	–	–	20.1 ± 1.5	0.51 ± 0.27	70	–	–	–	–	–	0.60 ± 0.27	–
rLZ-8 (M1A/R9A/D100A): rLZ-8 mutant named only in Tables 2, 3, 7 and 8 (protein) ASDTALIFALAWDVKKLSFDYTPNWGRGNPNNFIDTVTFPKVLTDKAYTYRVAVSGRNLGVKPSYAVESDGSQKVNFLEYNSGYGIADTNTIQVFVVDPATNNDFIIAQWN	–	–	–	–	1.97 ± 0.35	–	–	–	0.78 ± 0.67	60	–	–	–	–	–	0.77 ± 0.32	–
FIP-fve: fungai immunomodulatory protein from flammulina velutipes (protein) SATSLTFQLAYLVKKIDFDYTPNWGRGTPSSYIDNLTFPKVLTDKKYSYRVVVNGSDLGVESNFAVTPSGGQTINFLQYNKGYGVADTKTIQVFVVIPDTGNSEEYIIAEWKKT	–	–	–	–	–	–	–	–	–	–	–	–	–	does not have the capacity of binding with the EGFR	–	–	–

Reference: patent US12077566B2, “Mutants of recombinant immunoregulatory protein of Ganoderma lucidum and applications thereof” (priority 2017, dated 2024)
